± gives the uncertainty stated by the source.
Test: self-splicing fitness, log relative to wild type (ln ratio); higher = more splicing; Tetrahymena group I intron in knt gene, E. coli kanamycin selection, DiMSum; sequences stand for … in CUCUCU…GGAGGGAAAAGUUAUCAGGCAUGCACCUGGUAGCUAGUCUUUAAACCAAUAGAUUGCAUCGGUUUAAAAGGCAAGACCGUCAAAUUGCGGGAAAGGGGUCAACAGCCGUUCAGUACCAAGUCUCAGGGGAAACUUUGAGAUGGCCUUGCAAAGGGUAUGGUAAUAAGCUGACGGACAUGGUCCUAACCACGCAGCCAAGUCCUAAGUCAACAGAUCUUCUGUUGAUAUGGAUGCAGUUCACAGACUAAAUGUCGGUCGGGGAAGAUGUAUUCUUCUCAUAAGAUAUAGUCGGACCUCUCCUUAAUGGGAGCUAGCGGAUGAAGUGAUGCAACACUGGAGCCGCUGGGAACUAAUUUGUAUGCGAAAGUAUAUUGAUUAGUUUUGGAGUACUCGUGGUCG
Summary of the method: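 Fitness was computed with DiMSum as the error-weighted combination of replicate fold changes, kanamycin versus none, each normalised to wild type. The library randomised all eight intron nucleotides of the P1ex region, with the intron placed in the knt kanamycin-resistance gene on pET-22b(+) in E. coli BL21(DE3). Six replicate transformations were grown overnight at 37°C or 30°C on LB agar with or without 25 μg/mL kanamycin, plus 100 μg/mL carbenicillin, 50 μM IPTG and 0.2% rhamnose. Pooled colonies were amplicon-sequenced on an Illumina HiSeq 2500.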

| Sequence | self-splicing fitness (ln) (30 °C) | self-splicing fitness (ln) (37 °C) |
| --- | --- | --- |
| CUAAAGCAAUAUUACGAACU | -5.08 ± 0.38 | -2.04 ± 0.19 |
| CUAAAGCAAUAUUACGAAUA | -2.73 ± 0.23 | -1.94 ± 0.24 |
| CUAAAGCAAUAUUACGAAUU | -3.57 ± 0.29 | -3.9 ± 0.36 |
| CUAAAGCAAUAUUACGACCG | 0.565 ± 0.087 | 0.104 ± 0.11 |
| CUAAAGCAAUAUUACGACGG | -0.113 ± 0.051 | 0.466 ± 0.082 |
| CUAAAGCAAUAUUACGAGUC | -4.51 ± 0.3 | -2.96 ± 0.31 |
| CUAAAGCAAUAUUACGAUAC |  | -2.32 ± 0.31 |
| CUAAAGCAAUAUUACGCAGG | -0.529 ± 0.12 | -1.09 ± 0.19 |
| CUAAAGCAAUAUUACGCAGU | -3.13 ± 0.31 | -3.43 ± 0.32 |
| CUAAAGCAAUAUUACGCCAU | -3.34 ± 0.33 | -1.36 ± 0.27 |
| CUAAAGCAAUAUUACGCCGG | -0.951 ± 0.16 | -0.177 ± 0.18 |
| CUAAAGCAAUAUUACGCCGU | -3.75 ± 0.27 | -2.39 ± 0.25 |
| CUAAAGCAAUAUUACGCUUC | -3.03 ± 0.22 |  |
| CUAAAGCAAUAUUACGGAAG | -0.274 ± 0.062 | 0.0341 ± 0.083 |
| CUAAAGCAAUAUUACGGAUA | -3.45 ± 0.19 | -2.36 ± 0.2 |
| CUAAAGCAAUAUUACGGCAA | -3.27 ± 0.18 | -1.35 ± 0.15 |
| CUAAAGCAAUAUUACGGUCU | -3.74 ± 0.21 | -3.69 ± 0.29 |
| CUAAAGCAAUAUUACGUACU | -3.28 ± 0.17 | -2.57 ± 0.22 |
| CUAAAGCAAUAUUACGUCAC | -2.66 ± 0.14 | -2.62 ± 0.22 |
| CUAAAGCAAUAUUACGUGGA | -3.7 ± 0.2 | -2.64 ± 0.19 |
| CUAAAGCAAUAUUACGUUGG | -2.52 ± 0.12 | -0.891 ± 0.1 |
| CUAAAGCAAUAUUACGUUGU | -3.91 ± 0.12 | -3.06 ± 0.15 |
| CUAAAGCAAUAUUACGUUUC | -3.78 ± 0.18 | -2.69 ± 0.23 |
| CUACAGCAAUAUUACGACGC | -3.16 ± 0.34 | -2.08 ± 0.27 |
| CUACAGCAAUAUUACGAGUA | -3.39 ± 0.18 | -1.71 ± 0.12 |

| Sequence | self-splicing fitness (ln) (30 °C) | self-splicing fitness (ln) (37 °C) |
| --- | --- | --- |
| CUACAGCAAUAUUACGCACG | -0.609 ± 0.07 | 0.378 ± 0.08 |
| CUACAGCAAUAUUACGCAGC | -2.28 ± 0.24 | -1.75 ± 0.36 |
| CUACAGCAAUAUUACGCCUG | -1.43 ± 0.1 | -0.209 ± 0.097 |
| CUACAGCAAUAUUACGCUCC | -3.45 ± 0.24 | -2.11 ± 0.32 |
| CUACAGCAAUAUUACGGCGC | -3.96 ± 0.29 | -1.68 ± 0.39 |
| CUACAGCAAUAUUACGGCGG | -1.34 ± 0.084 | -1.47 ± 0.094 |
| CUACAGCAAUAUUACGGGGG | -3.39 ± 0.2 | -2.26 ± 0.15 |
| CUACAGCAAUAUUACGUAGC | -3.76 ± 0.26 | -2.54 ± 0.33 |
| CUACAGCAAUAUUACGUUUC | -3.69 ± 0.16 | -2.7 ± 0.21 |
| CUAGAGCAAUAUUACGAAGA | -3.61 ± 0.28 | -1.94 ± 0.43 |
| CUAGAGCAAUAUUACGAAGU | -2.56 ± 0.26 |  |
| CUAGAGCAAUAUUACGACCA | -2.61 ± 0.23 | -1.15 ± 0.28 |
| CUAGAGCAAUAUUACGACUG | 0.0552 ± 0.11 | -0.585 ± 0.14 |
| CUAGAGCAAUAUUACGAGAU | -3.54 ± 0.17 | -1.67 ± 0.15 |
| CUAGAGCAAUAUUACGAUAA | -2.85 ± 0.21 | -1.3 ± 0.23 |
| CUAGAGCAAUAUUACGAUUA | -2.49 ± 0.23 | -2.26 ± 0.23 |
| CUAGAGCAAUAUUACGCCAG | -0.97 ± 0.1 | -0.759 ± 0.21 |
| CUAGAGCAAUAUUACGCCUC | -3.5 ± 0.2 | -2.88 ± 0.34 |
| CUAGAGCAAUAUUACGCGAG | -0.514 ± 0.11 | 0.0831 ± 0.13 |
| CUAGAGCAAUAUUACGCGGU | -1.42 ± 0.092 | -0.641 ± 0.13 |
| CUAGAGCAAUAUUACGCUGG |  | -2.1 ± 0.33 |
| CUAGAGCAAUAUUACGGAUG | -0.4 ± 0.095 | 0.311 ± 0.11 |
| CUAGAGCAAUAUUACGGCAC |  | -0.856 ± 0.49 |
| CUAGAGCAAUAUUACGGCUA | -3.41 ± 0.31 | -1.17 ± 0.21 |
